These results are taken from publication PMC10819331.

For the data set, the system named is T1, MBP-Z3495 (LysR-type regulator) (Escherichia coli O157:H7 EDL933?), ORF:b652805f.
T1 sequence: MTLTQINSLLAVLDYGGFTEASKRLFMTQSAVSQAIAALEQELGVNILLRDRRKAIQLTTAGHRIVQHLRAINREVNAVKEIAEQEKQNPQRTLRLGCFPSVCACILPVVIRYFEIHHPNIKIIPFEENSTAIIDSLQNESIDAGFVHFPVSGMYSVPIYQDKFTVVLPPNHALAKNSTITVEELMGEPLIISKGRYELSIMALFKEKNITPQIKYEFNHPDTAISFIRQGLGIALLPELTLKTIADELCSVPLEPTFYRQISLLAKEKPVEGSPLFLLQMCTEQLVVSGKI
The experiment in a line: EMSA.
For the sequence “GTTATCGCAGGGAGCCACACAGCGTGTGTTGGACGCGACTCAGCTTTACCTTGGTGAGATTGGTTATTCACCACTGTTAACGGCCGAAGAAGAAGTTTATTTTGCGCGTCGCGCACTGCGTGGAGATGTCGCCTCTCGCCGCCGGATGATCGAGAGTAACTTGCGTCTGGTGGTAAAA (double strand) [rpoS fragment]”, the binding entry was “no binding”.

“AATTCCCGATTACGCATCGCACCATTGAGAAGTTTTATTTTATATGAGGATAACATTTTTAAATTTTATTCATCCTGGTGGTTGAACAATGAGAAAAAATATGGTGAACTTACATCGTCTAAGAATAGAGTAGAAAGGAAGCTGTTGTACAGTACTATTTAATGGAATATTCATAATTAAT (double strand) [LEE4 promoter]”: the binding entry is reported as “no binding”.

Take “TAAAAACTCTTCAACGTTTCTTTTAACTAAAAGATTCATCTGCAGGCTCTGAAGTAAGTATACGTGTGAATATTATTGCTTGAAAAAGCGTATTGGATAATATATACAGTATATGTACTTTATGTACATTGCAACTATTTAAATAATATAATAGTTGCCTATGGGATAATTTGGTTATTTATAACCAGGTAAATGTCTAAATTAGACAAAAGGAGAAAGATCAATGGAAGCAGCAAATTTAAGTCCTTCTGGTGCAGTAATGCCGCTGGCGACCTCACTCA (double strand) [LEE2/3 promoter]”: the binding entry was “no binding”.
